Measurements published in the RNAGym collection of RNA variant scans (doi:10.7554/elife.80360).

B1: CPEB3 Ribozyme (parent)
chain: GGGGGCCACAGCAGAAGCGUUCACGUCGCGGCCCCUGUCAGAUUCUGGUGAAUCUGCGAAUUCUGCUGU

Variants of: B1
Experiment: self-cleavage, relative activity (ratio to wild type); higher = more cleavage; co-transcriptional
GGGGGUCACAGCACAAGCGUUCACGUCGCGGCCCCUGUCAGAUUCUGGUGAAUCUGCGAAUUCUGCUGU gave a self-cleavage of 0.458. Work on GGGGGUCACAGCAUAAGCGUUCACGUCGCGGCCCCUGUCAGAUUCUGGUGAAUCUGCGAAUUCUGCUGU yielded a self-cleavage of 0.616. GGGGGGCACAGCAGAAGCGUUCACGUCGCGGCCCCCGUCAGAUUCUGGUGAAUCUGCGAAUUCUGCUGU showed a self-cleavage of 0.184. Variant GGGGGUCACAGCAGAAGCGUUCAGGUCGCGGCCCCUGUCAGAUUCUGGUGAAUCUGCGAAUUCUGCUGU has a self-cleavage of 0.345. Work on GGGGGGCACAGCAGAAGCGUUCACGUCGCGGCCCCUGUCAGAUUCGGGUGAAUCUGCGAAUUCUGCUGU yielded a self-cleavage of 0.386. Work on GGGGGGCACAGCAGAAGCGUUCACGUCGCGGCCCCUGUCAGAUUCAGGUGAAUCUGCGAAUUCUGCUGU yielded a self-cleavage of 0.377. In the case of GGGGGGCACAGCAGAAGCGUUCACGUCGCGGCCCCUGUCAGAUUCCGGUGAAUCUGCGAAUUCUGCUGU, the self-cleavage is reported as 0.41. GGGGGUCACAGCAGAAGCGUUCACGUCGCGGCCCCUGUCAGAUUCUGGUGAGUCUGCGAAUUCUGCUGU gave a self-cleavage of 0.997. Variant GGGGGGCACAGCAGAAGCGUUCACGUCGCGGCCCCUGUCAGAUUCUGGUGAAUCUGCGAAUUCUCCUGU has a self-cleavage of 0.158. Variant GGGGGGCACAGCAGAAGCGUUCACGUCGCGGCCCCUGUCACAUUCUGGUGAAUCUGCGAAUUCUGCUGU has a self-cleavage of 0.118. GGGGGGCACAGCAGAAGCGUUCACGUCGCGGCCCCUGUCAGAUUCUGGUCAAUCUGCGAAUUCUGCUGU gave a self-cleavage of 0.205. Variant GGGGGUCACAGCAGAAGCGUUCACGUCGAGGCCCCUGUCAGAUUCUGGUGAAUCUGCGAAUUCUGCUGU has a self-cleavage of 0.493. In the case of GGGGGUCACAGCAGAAGCGUUCACGUCGUGGCCCCUGUCAGAUUCUGGUGAAUCUGCGAAUUCUGCUGU, the self-cleavage is reported as 0.405. In the case of GGGGGUCACAGCAGAAGCGUUCACGUCGCGGCCCGUGUCAGAUUCUGGUGAAUCUGCGAAUUCUGCUGU, the self-cleavage is reported as 0.2. In the case of GGGGGUCACAGCAGAAGCGUUCACGUCGCGGCCCUUGUCAGAUUCUGGUGAAUCUGCGAAUUCUGCUGU, the self-cleavage is reported as 0.78. GGGGGGCACAGCAGAAGCGUUCACGUCGCGGCCCCUGGCAGAUUCUGGUGAAUCUGCGAAUUCUGCUGU gave a self-cleavage of 0.0812. GGGGGUCACAGCAGAAGCGUUCGCGUCGCGGCCCCUGUCAGAUUCUGGUGAAUCUGCGAAUUCUGCUGU gave a self-cleavage of 1.03. GGGGGGCACAGCAGAAGCGUUCACGUCGCGGCCCCUGUCAGAAUCUGGUGAAUCUGCGAAUUCUGCUGU gave a self-cleavage of 0.172. GGGGGGCACAGCAGAAGCGUUCACGUCGCGGCCCCUGUCAGAGUCUGGUGAAUCUGCGAAUUCUGCUGU gave a self-cleavage of 0.126. With GGGGGUCACAGCAGAAGCGUUCACGUCGCGGCCCCUGUCAGGUUCUGGUGAAUCUGCGAAUUCUGCUGU the self-cleavage was 0.951. GGGGGUCACAGCAGAAGCGUUCACGUCGCGGCCGCUGUCAGAUUCUGGUGAAUCUGCGAAUUCUGCUGU showed a self-cleavage of 0.188. In the case of GGGGGGCACAGCAGAAGCGUUCACGUCGCGGCCCCUGUCAGAUUGUGGUGAAUCUGCGAAUUCUGCUGU, the self-cleavage is reported as 0.376. For GGGGGUCACAGCAGAAGCGUUCACGUCGCGGCGCCUGUCAGAUUCUGGUGAAUCUGCGAAUUCUGCUGU, the self-cleavage was 0.145. With GGGGGUCACAGCAGAAGCGUUCACGUCGCGGCACCUGUCAGAUUCUGGUGAAUCUGCGAAUUCUGCUGU the self-cleavage was 0.257. With GGGGGGCACAGCAGAAGCGUUCACGUCGCGGCCCCUGUCAGAUUCUGGUGAAUCGGCGAAUUCUGCUGU the self-cleavage was 0.144. For GGGGGGCACAGCAGAAGCGUUCACGUCGCGGCCCCUGUCAGAUUCUGGUGAAUCCGCGAAUUCUGCUGU, the self-cleavage was 0.284. GGGGGGCACAGCAGAAGCGUUCACGUCGCGGCCCCUGUCAGAUUCUGGUGAAUCAGCGAAUUCUGCUGU showed a self-cleavage of 0.26. With GGGGGGCACAGCAGAAGCGUUCACAUCGCGGCCCCUGUCAGAUUCUGGUGAAUCUGCGAAUUCUGCUGU the self-cleavage was 0.0449. GGGGGGCACAGCAGAAGCGGUCACGUCGCGGCCCCUGUCAGAUUCUGGUGAAUCUGCGAAUUCUGCUGU showed a self-cleavage of 0.0342. Variant GGGGGGCACAGCAGAAGCGCUCACGUCGCGGCCCCUGUCAGAUUCUGGUGAAUCUGCGAAUUCUGCUGU has a self-cleavage of 0.0949. Work on GGGGGUCACAGCAGAAGCGUUCACGUCGCGGCCCCUGUCAGAUUCUGGUGAAUCUGCGAAUUAUGCUGU yielded a self-cleavage of 0.806. GGGGGGCACAGCAGAAGCGUUCACGUCGCGGCCCCUGUCAGAUUCUGGUGAAUCUGCGAAUUCUGGUGU gave a self-cleavage of 0.311. Variant GGGGGGCACAGCAGAAGCGUUCACGUCGCGGCCACUGUCAGAUUCUGGUGAAUCUGCGAAUUCUGCUGU has a self-cleavage of 0.0671. With GGGGGGCACAGCAGAAGCGUUCACGUCGCUGCCCCUGUCAGAUUCUGGUGAAUCUGCGAAUUCUGCUGU the self-cleavage was 0.045. GGGGGUUACAGCAGAAGCGUUCACGUCGCGGCCCCUGUCAGAUUCUGGUGAAUCUGCGAAUUCUGCUGU gave a self-cleavage of 0.86. Variant GGGGGUCACAGCAGUAGCGUUCACGUCGCGGCCCCUGUCAGAUUCUGGUGAAUCUGCGAAUUCUGCUGU has a self-cleavage of 0.698. In the case of GGGGGGCACAGCAGAAGCGUACACGUCGCGGCCCCUGUCAGAUUCUGGUGAAUCUGCGAAUUCUGCUGU, the self-cleavage is reported as 0.246. Work on GGGGGUCACAGCAGAAGCGUUCACGUCGCGGCCCCUGUCGGAUUCUGGUGAAUCUGCGAAUUCUGCUGU yielded a self-cleavage of 0.999. For GGGGGUCACAGCAGAAGGGUUCACGUCGCGGCCCCUGUCAGAUUCUGGUGAAUCUGCGAAUUCUGCUGU, the self-cleavage was 0.0786.
